The values that follow come from patent US9974870B2, “Compositions and methods for treatment and imaging using nanoparticles” (Washington University, priority 2014, dated 2018).

As a reminder, the Km is the substrate concentration at which the rate is half of its maximum. As a reminder, the tissue uptake is the share of the injected amount in each gram of the tissue.

One data set concerns the target T1, caspase-3 (Homo sapiens, UniProt P42574).
T1 construct: purchased Cal Biochem
T1 sequence (P42574 29-175 limits assumed): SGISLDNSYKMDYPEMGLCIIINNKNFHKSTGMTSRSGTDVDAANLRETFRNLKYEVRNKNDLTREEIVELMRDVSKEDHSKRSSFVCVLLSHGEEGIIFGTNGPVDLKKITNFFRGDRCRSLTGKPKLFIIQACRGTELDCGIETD
T1 sequence (P42574 176-277 limits assumed): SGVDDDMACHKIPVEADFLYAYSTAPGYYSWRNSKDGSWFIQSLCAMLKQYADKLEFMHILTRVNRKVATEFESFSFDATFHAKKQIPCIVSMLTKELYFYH
The data set can be described thus: Caspase-3 mediated hydrolysis, enzyme kinetics by radio-HPLC. The class given is biochemical. Conditions: caspase-3 290 pM, 37° C., pH 7.4. On the procedure:
However, the dimer readily converts back to single molecules under the high reducing conditions such as used to prepare the ^99mTc chelate. Kinetic analysis of caspase-3 activation with [^125I]LS370 using a radionuclide detector (radio-high-performance liquid chromatography) gave a KM and kcat of 15±3 1 μM and […], respectively.
[^125I]LS370 was dissolved in caspase buffer {100 mM NaCl, 50 mM 4-(2-hydroxyethyl)-1-piperazineethanesulfonic acid, 10 mM DTT, 1 mM ethylenediaminetetraacetic acid, 10% glycerol, and 0.1% 3-[(3-cholamidopropyl) dimethylammonio]-1-propanesulfonate, pH 7.4} at concentrations varying from 2.5 to 20 μM. […] These solutions were allowed to react at 37° C. for 180 min and were sampled every 30 min. Substrate hydrolysis was monitored by radio-high-performance liquid chromatography (Vydac, C-18, 4.6×250 mm, 1 ml/m, A=H2O, 0.1% TFA, B=ACN, 0.1% TFA; 10-90% B, 30 min, linear gradient) of these time point samples. Comparison to a standard caspase-3 substrate (Ac-DEVD-pNA) and calculation of the enzyme kinetic parameters were carried out as previously described.

The nature of data set [1]: Tissue biodistribution in tumor-bearing Balb/c mice. The data set is classed as in vivo. Conditions: female, Balb/c, mouse, iv, 0.185 MBq, total radioactivity, 1 h post injection. The procedure: The structure-activity relationship was evaluated in vivo by performing a tissue biodistribution study in naive (FIG. 26) and tumor-bearing Balb/c mice (FIG. 23). […] The tumor/blood ratios for both [^125I]LS370 and [^125I]LS734 was 0.6±0.03. The tumor/muscle ratios were similar as well but higher than the tumor/blood ratios, [^125I]LS734 (2.2±0.1) and [^125I]LS370 (2.1±0.3). Thyroid uptake was 73±21 and 115±73 for [^125I]LS370 and [^125I]LS734, respectively.
All animal studies were conducted according to guidelines on the humane care and use of laboratory animals under protocols approved by the Animal Studies Committee at Washington University School of Medicine. For tissue biodistribution studies, syngeneic breast tumor models were prepared via bilateral orthotopic implantation of luciferase-transfected 4T1 mouse mammary carcinoma cells (4T1luc, 5×10^5 cells per tumor) in the mammary fat pads of 6-week-old, female Balb/c mice (NCI, Frederick, Md., USA). Studies were conducted when the tumors reached about 3 mm maximum diameter (−10 days). Healthy female Balb/c mice (n=4 per time point) were anesthetized with 1-2% vaporized isoflurane and injected via tail vein with 0.185 MBq of [^125I]LS370 or [^125I]LS734 (specific activities: [^125I]LS370-40×10^6 MBq/mmol; [^125I]LS734-10×10^6 MBq/mmol). At 1 h post injection, mice were killed. Organs of interest were removed and blotted dry. The radioactivity was measured in a gamma counter (Packard II gamma counter). Diluted standard doses (1:100) were prepared and counted along with the samples. Data points were corrected for radioactive decay. The percent injected dose per gram of tissue (% ID/g) was calculated.

The next data set relates to MDA-MB-231 cells. The data set can be described thus: Cell uptake and efflux studies. Conditions: untreated MDA-MB-231 cells, 2 h postincubation at 37° C. The data set is classed as cell-based, human. An excerpt:
The goals of the cell-uptake studies were to (1) assess any changes in the structure-activity relationship resulting from the modular and responsive probe design and (2) evaluate the retention of the iodine containing hydrophobic peptide moiety in treated and untreated cells. Metastatic human breast MDA-MB-231 cells were used to evaluate whether the amino acid sequence modulation would enhance internalization, and how the probe would respond (intracellular) postchemotherapy. In the untreated cells, there was a higher uptake (P<0.001) of [^125I]LS734 (3.6±0.5) than [^125I]LS370 (0.3±0.3) at 2 h postincubation at 37° C. (FIG. 22A). […] The amount of iodinated fraction released by the untreated and treated cells at 3 h (post 2 h incubation and removal of excess activity) was used as a measure of the efflux activity.
MDA-MB-231 cells used for the uptake and efflux assay were grown on 24-well tissue culture plates until they were 80-90% confluent with […] cells per well. […] The experimental treatment group of cells was treated with 10 ng/ml of SN-38 (7-ethyl-10-hydroxy-camptothecin, Sigma Aldrich) for 24 h. Then, the SN-38 was removed, and the second chemotherapeutic drug, UCN-01 (Sigma Aldrich), was introduced at a concentration of […] in 0.1% BSA per well. At this point, respective radioactive solutions ([^125I]LS734 or [^125I]LS370, 0.02 μg per well; specific activities: [^125I]LS370-40×10^6 MBq/mmol; [^125I]LS734-10×10^6 MBq/mmol) were added to treated and control groups. The solutions were added drop-wise into the wells and gently mixed to ensure homogeneous distribution. The final volume per well was 240 μl, and the plates were incubated at 37° C. (5% CO2) for 2 h. After incubation, the supernatant (fraction 1) was collected, and the cells were washed twice with 250 μl of cold serum-free media. […] Fraction 2 represents the cell efflux, which is the amount of radioactivity released from cells after the 2 h uptake. […] The radioactivity in each fraction was measured in a well counter (Packard II gamma counter).

Data set [2] addresses T2, MMP9 (Homo sapiens, UniProt P14780). Description: In vitro MMP9 experiment with ^64Cu-labeled peptide-functionalized gold NPs. The data set is classed as biochemical. The procedure:
Once surface-functionalized with the peptide and PEG, an experiment was performed in PBS in order to characterize the ability of MMP9 to cleave the peptide present on the nanoparticle surface. In this experiment, ^64Cu was chelated to DTPA on the peptide attached to the NP. The suspension was incubated with MMP9 for 1.5 hours and then the supernatant solution was separated from the NPs by centrifugal filtration. […] To further confirm the presence of the cleaved peptide, high performance liquid chromatography (HPLC) was performed on the supernatant solutions, and co-registered UV and radioactive peaks associated with the radiolabeled peptide fragment were observed (FIG. 6).
1 mL of peptide-functionalized gold NPs was centrifuged, supernatant decanted, and resuspended in 0.1 M NH4OAc. 110 μCi ^64Cu, provided by the Washington University Cyclotron Facility, was added to the NP pellet and shaken at 45° C. for 1 hour. Radiolabeled NPs were purified from nonchelated ^64Cu by centrifugation. Then NP suspensions were incubated with 20 ng MMP9 for 1.5 hours, after which 450 μL PBS was added and supernatant was purified from the NPs by centrifugation filtration using a 10 k MW filter. Supernatant and NP pellets were counted for radioactivity in a PerkinElmer 1480 Automatic Gamma Counter.

Data set [3] has as its target T2, MMP9. Description: Organ ratiometric SPECT imaging (kidney/lung, bladder/lung) after MMP9 pre-incubation. The data set is classed as in vivo, C57 Black6 mice. On the procedure: (§1) To further validate the specificity of the activation, an identical experiment as the one just described was performed with an ^111In-labeled non-radioactive gold nanoparticle probe, similar to a radioactive nanoparticle previously reported. An initial in vitro validation was performed; when incubated with MMP9 for 48 hours, 48% ^111In was cleaved from the nanoparticle compared to only 16% without MMP9. With this singly-labeled probe, an alternative in vivo ratiometric imaging approach was performed (FIG. 18A). Rather than compare the ratio between two gamma energy channels, uptake intensity ratios between the lungs and kidneys or bladder were quantified. Importantly, clear distinctions were observed between the MMP9 and control groups. […] Differences were also observed 5 hours after injection (FIG. 18C), where the bladder/lung ratio remained elevated in the MMP9-incubated condition (0.19±0.15) compared to the control (0.03±0.003).
The dual-radiolabeled nanocrystal suspension was separated into 50 μL samples containing 20 ng MMP9 and incubated at 37° C. for 9 hours (along with control that was incubated without MMP9). 50 μL (˜80 μCi ^199Au and 40 μCi ^111In) was then intratracheally injected into C57 Black6 mice and two-channel SPECT imaging was performed as described above. In another experiment, a similar protocol was performed with the non-radioactive gold NP core functionalized with an ^111In-labeled, MMP9-cleavable peptide. Briefly, 10 mL of 10 nm diameter gold nanoparticles (Sigma Aldrich) was centrifuged at 10 k g-force for 70 minutes, supernatant was removed, the pellet was resuspended in 1 mL of ultrapure water containing 2.2 mg mPEG-SH (MW=5000) and 1.0 mg pMMP9 peptide, and shaken overnight. Suspension was again centrifuged at 10 k g-force, supernatant removed, and the pellet was resuspended in 500 μL 0.1 M NH4OAc buffer (pH 5.5). Then 15 μL ^111InCl (5.23 mCi) was added and shaken at 45° C. for 90 minutes. Suspension was centrifuged at 10 k g-force for 90 minutes, supernatant removed, and the pellet containing 2.96 mCi was resuspended in 500 μL buffer. 50 μL aliquots with or without 10 ng MMP9 were prepared and shaken at 37° C. for 16 hours. 50 μL (˜230 μCi ^111In) was then intratracheally injected into C57 Black6 mice (n=4/group) and SPECT imaging was performed using the 245 keV channel immediately upon injection and 5 and 24 hours later.

For data set [4], the target named is T2, MMP9. Description: In vitro MMP9 cleavage of ^111In from non-radioactive gold nanoparticle probe. The class given is biochemical. The procedure:
as §1
The dual-radiolabeled nanocrystal suspension was separated into 50 μL samples containing 20 ng MMP9 and incubated at 37° C. for 9 hours (along with control that was incubated without MMP9). 50 μL (˜80 μCi ^199Au and 40 μCi ^111In) was then intratracheally injected into C57 Black6 mice and two-channel SPECT imaging was performed as described above. […]

[5] abbreviates: MMP9-incubated probe, immediately upon injection.
[6] abbreviates: control probe without MMP9, immediately upon injection.

Like-named read-outs stand apart in the source and are kept apart here. Non-standard residues stand in square brackets, D forms with d. Residues, ends and D or L forms follow the SMILES beside them. Primed or numbered codes have the meaning given here. DTPA′ = chelating agent complexing 111In or 64Cu; Tyr(3-I) = N[C@@H](Cc1ccc(O)c(I)c1)C(=O)O; Ahx = NCCCCCC(=O)O

T2 sequence (P14780 94-707, species assumed): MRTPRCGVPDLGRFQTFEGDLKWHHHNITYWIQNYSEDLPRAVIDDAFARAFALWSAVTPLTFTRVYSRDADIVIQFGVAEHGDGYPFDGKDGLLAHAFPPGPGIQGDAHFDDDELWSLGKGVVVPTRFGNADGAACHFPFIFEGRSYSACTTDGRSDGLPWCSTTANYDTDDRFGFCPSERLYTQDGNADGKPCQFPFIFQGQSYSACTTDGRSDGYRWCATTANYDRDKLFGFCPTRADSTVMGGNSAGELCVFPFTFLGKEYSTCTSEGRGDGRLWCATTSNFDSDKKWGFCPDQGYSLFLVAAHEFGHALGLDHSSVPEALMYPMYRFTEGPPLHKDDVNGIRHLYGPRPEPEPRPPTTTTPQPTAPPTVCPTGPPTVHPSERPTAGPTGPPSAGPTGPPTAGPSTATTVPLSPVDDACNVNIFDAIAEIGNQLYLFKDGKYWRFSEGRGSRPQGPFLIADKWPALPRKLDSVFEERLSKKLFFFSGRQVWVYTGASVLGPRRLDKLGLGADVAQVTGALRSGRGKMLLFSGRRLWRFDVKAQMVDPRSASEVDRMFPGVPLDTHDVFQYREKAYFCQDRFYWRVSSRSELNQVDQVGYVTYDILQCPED

In the case of `CC(=O)N[C@@H](CC(=O)O)C(=O)N[C@@H](CCC(=O)O)C(=O)N[C@H](C(=O)N[C@@H](CC(=O)O)C(=O)Nc1ccc([N+](=O)[O-])cc1)C(C)C` [Ac-DEVD (SEQ ID NO:2)-pNA, Ac-DEVD-pNA], on caspase-3, the Km worked out at 11 µM and the kcat is 2.4 M/s.

As for `CC(=O)NCCCCCC(=O)N[C@@H](Cc1ccc(O)c(I)c1)C(=O)NCCCCCC(=O)N[C@@H](CC(=O)O)C(=O)N[C@@H](CCC(=O)O)C(=O)N[C@H](C(=O)N[C@@H](CC(=O)O)C(=O)NCC(=O)N[C@@H](CCCCN)C(=O)NCC(=O)N[C@@H](CS)C(N)=O)C(C)C` [[^125I]LS370] (Ac-[Ahx][Tyr(3-I)][Ahx]DEVDGKGC-NH2), the tissue to tissue ratio at 1 h in data set [1] (4T1luc tumor / blood, read-out: tumor/blood ratio) was determined as 0.6 ± 0.03; in data set [1] (4T1luc tumor / muscle, read-out: tumor/muscle ratio), 2.1 ± 0.3. Besides, in data set [1] (thyroid), the tissue uptake at 1 h was found to be 73 ± 21 %ID/g. Further, in the data set on MDA-MB-231 cells, the cell uptake is 0.3±0.3.

“^64Cu-labeled nanoparticles ({DTPA′}-GPLGVRGKGYG[Ahx]C-NH2; not fully specified (residue 13); also: DTPA chelates 64Cu)”: the “radioactivity observed in the supernatant after incubation with MMP9” value with MMP9 [2] ([…] incubation with MMP9, PBS, centrifugal filtration) amounted to 23%. Besides, in the data set with MMP9 [2] ([…], without MMP9), the “radioactivity observed in the supernatant, control without MMP9” value is listed as under 5%.

With “^111In-labeled non-radioactive gold nanoparticle probe ({DTPA′}-GPLGVRGKGYG[Ahx]C-NH2; not fully specified (residue 13); printed as Gly-Pro-Leu-Gly-Val-Arg-Gly-Lys-Gly-Tyr-Gly-Ahx-Cys; also: 111In chelated by DTPA, Cys thiol anchored to gold nanoparticle)”, the bladder/lung uptake ratio in the data set with MMP9 [3] (MMP9-incubated probe, 5 hours after injection) is 0.19±0.15; with MMP9 [3] (setting [5]), 0.56±0.24; with MMP9 [3] (control probe without MMP9, 5 hours after injection), 0.03±0.003; with MMP9 [3] (setting [6]) it was 0.08±0.04. Further, the kidney/lung uptake ratio with MMP9 [3] (setting [5]) is 0.12±0.04; in the data set with MMP9 [3] (setting [6]), 0.01±0.004. Also, the “^111In cleaved from the nanoparticle” value with MMP9 [4] (incubated with MMP9 for 48 hours) is 48%; with MMP9 [4] (without MMP9), 16%.
